Where two headings read alike, the source gives them in different places.
B1: γ1: wild-type calcium channel γ1 subunit (protein, UniProt Q06432 1-222, looked up)
Voltage-dependent calcium …: MSQTKMLKVRVTLFCILAGIVLAMTAVVTDHWAVLSPHMEHHNTTCEAAHFGLWRICTKRIPMDDSKTCGPITLPGEKNCSYFRHFNPGESSEIFEFTTQKEYSISAAAIAIFSLGFIILGSLCVLLSLGKKRDYLLRPASMFYAFAGLCILVSVEVMRQSVKRMIDSEDTVWIEYYYSWSFACACAAFILLFLGGLALLLFSLPRMPRNPWESCMDAEPEH
B2: γ6 A46I: γ6 mutant, alanine 46 replaced by isoleucine (protein, UniProt Q9BXT2 1-260, looked up, variant A46I)
Voltage-dependent calcium …: MMWSNFFLQEENRRRGAAGRRRAHGQGRSGLTPEREGKVKLALLLIAVGATLAVLSVGTEFWVELNTYKANGSAVCEAAHLGLWKACTKRLWQADVPVDRDTCGPAELPGEANCTYFKFFTTGENARIFQRTTKKEVNLAAAVIAVLGLAVMALGCLCIIMVLSKGAEFLLRVGAVCFGLSGLLLLVSLEVFRHSVRALLQRVSPEPPPAPRLTYEYSWSLGCGVGAGLILLLGAGCFLLLTLPSWPWGSLCPKRGHRAT
B3: γ6 G49A: γ6 with glycine 49 mutated to alanine (protein, UniProt Q9BXT2 1-260, looked up, variant G49A)
Voltage-dependent calcium …: MMWSNFFLQEENRRRGAAGRRRAHGQGRSGLTPEREGKVKLALLLAAVAATLAVLSVGTEFWVELNTYKANGSAVCEAAHLGLWKACTKRLWQADVPVDRDTCGPAELPGEANCTYFKFFTTGENARIFQRTTKKEVNLAAAVIAVLGLAVMALGCLCIIMVLSKGAEFLLRVGAVCFGLSGLLLLVSLEVFRHSVRALLQRVSPEPPPAPRLTYEYSWSLGCGVGAGLILLLGAGCFLLLTLPSWPWGSLCPKRGHRAT

How the values were obtained:
Cav3.1 [1] = target: T1, Cav3.1 (Homo sapiens, UniProt O43497); assay: Whole-cell patch clamp of Cav3.1 current in Cav3.1-HEK cells transfected with γ6, γ4, their first transmembrane domains or point mutants (Example 3); assay type: cell-based; details: for Normalized Current Density: relative to vector control (100.0%), Table 3.3
T1 construct: expressed in transfected cells; host or cells: HEK-293, stably transfected
T1 sequence (O43497 whole entry, the tested form may be a part): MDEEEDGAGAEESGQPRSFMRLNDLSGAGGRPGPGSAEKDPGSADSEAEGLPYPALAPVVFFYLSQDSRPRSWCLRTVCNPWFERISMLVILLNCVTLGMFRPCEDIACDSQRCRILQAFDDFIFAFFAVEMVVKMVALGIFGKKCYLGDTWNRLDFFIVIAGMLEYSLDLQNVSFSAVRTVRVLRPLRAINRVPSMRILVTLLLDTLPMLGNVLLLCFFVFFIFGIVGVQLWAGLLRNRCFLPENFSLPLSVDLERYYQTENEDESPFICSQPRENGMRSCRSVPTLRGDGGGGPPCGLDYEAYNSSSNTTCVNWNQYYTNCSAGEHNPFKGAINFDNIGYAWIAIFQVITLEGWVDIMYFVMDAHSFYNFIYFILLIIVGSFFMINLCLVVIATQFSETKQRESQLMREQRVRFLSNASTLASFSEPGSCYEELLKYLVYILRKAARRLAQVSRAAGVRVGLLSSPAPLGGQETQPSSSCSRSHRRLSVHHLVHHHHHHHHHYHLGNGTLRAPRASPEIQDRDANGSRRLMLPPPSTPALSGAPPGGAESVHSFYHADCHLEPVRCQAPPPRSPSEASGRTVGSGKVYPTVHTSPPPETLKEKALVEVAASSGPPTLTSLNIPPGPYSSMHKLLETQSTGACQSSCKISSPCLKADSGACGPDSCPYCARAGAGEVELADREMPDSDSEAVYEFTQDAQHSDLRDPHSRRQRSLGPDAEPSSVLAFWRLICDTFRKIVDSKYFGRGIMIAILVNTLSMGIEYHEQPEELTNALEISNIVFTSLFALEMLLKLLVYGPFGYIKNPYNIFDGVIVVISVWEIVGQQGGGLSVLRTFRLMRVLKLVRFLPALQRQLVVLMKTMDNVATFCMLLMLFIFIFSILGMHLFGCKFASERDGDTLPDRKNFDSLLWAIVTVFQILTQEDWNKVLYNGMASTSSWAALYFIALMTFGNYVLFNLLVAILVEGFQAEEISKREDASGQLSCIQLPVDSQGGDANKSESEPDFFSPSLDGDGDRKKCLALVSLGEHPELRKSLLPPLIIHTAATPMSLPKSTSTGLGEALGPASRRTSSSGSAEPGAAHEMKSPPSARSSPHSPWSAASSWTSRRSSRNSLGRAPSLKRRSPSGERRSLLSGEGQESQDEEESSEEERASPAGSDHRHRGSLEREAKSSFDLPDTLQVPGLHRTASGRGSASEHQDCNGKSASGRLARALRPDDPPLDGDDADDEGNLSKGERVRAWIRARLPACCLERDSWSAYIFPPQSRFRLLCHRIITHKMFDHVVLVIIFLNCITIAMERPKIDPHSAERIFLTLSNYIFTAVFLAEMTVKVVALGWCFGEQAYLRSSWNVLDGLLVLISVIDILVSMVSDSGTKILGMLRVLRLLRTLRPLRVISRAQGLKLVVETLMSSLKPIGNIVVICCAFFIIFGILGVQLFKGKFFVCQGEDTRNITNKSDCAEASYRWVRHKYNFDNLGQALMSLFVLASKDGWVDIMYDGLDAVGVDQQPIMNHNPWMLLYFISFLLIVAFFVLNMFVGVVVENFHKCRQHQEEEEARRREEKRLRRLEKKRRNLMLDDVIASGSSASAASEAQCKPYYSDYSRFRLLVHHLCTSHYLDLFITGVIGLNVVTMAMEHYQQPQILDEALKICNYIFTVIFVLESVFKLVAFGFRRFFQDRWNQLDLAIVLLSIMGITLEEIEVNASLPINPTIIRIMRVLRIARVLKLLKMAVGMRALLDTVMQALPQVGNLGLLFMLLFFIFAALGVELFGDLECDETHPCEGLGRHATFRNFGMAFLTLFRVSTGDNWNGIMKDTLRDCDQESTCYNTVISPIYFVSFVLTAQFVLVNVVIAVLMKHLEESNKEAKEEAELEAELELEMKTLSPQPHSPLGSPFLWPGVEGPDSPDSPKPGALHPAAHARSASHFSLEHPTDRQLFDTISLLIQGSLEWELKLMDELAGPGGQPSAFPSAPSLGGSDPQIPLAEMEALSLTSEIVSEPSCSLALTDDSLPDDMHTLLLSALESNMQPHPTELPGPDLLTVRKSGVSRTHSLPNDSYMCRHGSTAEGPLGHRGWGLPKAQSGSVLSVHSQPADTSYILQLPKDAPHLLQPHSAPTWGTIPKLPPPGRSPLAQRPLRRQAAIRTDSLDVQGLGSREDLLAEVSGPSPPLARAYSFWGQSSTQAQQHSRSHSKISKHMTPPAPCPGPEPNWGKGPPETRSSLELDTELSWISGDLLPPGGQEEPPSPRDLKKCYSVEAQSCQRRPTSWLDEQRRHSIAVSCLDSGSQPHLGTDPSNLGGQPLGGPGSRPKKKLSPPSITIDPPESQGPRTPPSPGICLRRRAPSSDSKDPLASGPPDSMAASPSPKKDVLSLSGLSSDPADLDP
Experimental: Transfection. HEK-293 cells stably transfected with the Cav3.1 α1 subunit were transiently transfected with vectors containing GFP and γ subunits cDNA when the cultures reached 50% confluency. Lipofectamine 2000 reagent (Invitrogen) was used following manufacturer's protocol.
Electrophysiology. Whole cell Ca2+ currents were recorded at room temperature using an Axon Instruments Axopatch-1D amplifier, a Digidata 1200 interface and pClamp8.0 software about 48 hours after transfection. Cell capacitance was typically around 10 pF, but ranged from 5-40 pF. Recording micropipettes were made from borosilicate glass (2-3 Mohms tip resistance), and filled with solution contained (in mM) 130 NaCl, 10 EGTA, 2 MgCl2, 1 CaCl2, 10 HEPES, 3 Tris-ATP, and 0.3 Li2GTP or 0.3 Tris-GTP. Tyrode's solution was used as the bath solution. It contained (in mM) 137 NaCl, 1 KCl, 1 MgCl2, 0.33 NaH2PO4, 2 CaCl2, 10 HEPES. Both solutions were adjusted to pH 7.4 with NaOH and 280 mOsm with sucrose.
We determined the biophysical characteristics of Cav3.1 currents in transfected HEK-293 cells and effects of the first transmembrane domain of γ4 and γ6 on these properties. Test parameters were optimized for studying Cav3.1 current. The time constant (τ) of deactivation (τdeac) was obtained by single exponential fitting of tail currents. For Cav3.1 currents, the cells were clamped at a holding potential of −100 mV, then depolarized to −20 mV for 4 msec, and repolarized to various voltages from −120 mV to −60 mV at 10 mV interval for 150 msec to elicit tail currents.
The voltage dependence of activation was measured using tail currents. For Cav3.1 currents, the cells were clamped at a holding potential equal to −100 mV, and then depolarized briefly to a conditioning potential, varying from −90 mV to +60 mV, and finally clamped at −60 mV before inactivation. Using this protocol, all tail currents are elicited at the same driving force (at −60 mV), so the current amplitude accurately reflects the number of channels opened during the different conditioning potentials.
A series of conditioning prepulses of 500 msec were used to measure voltage dependence of inactivation in our experiments. Channels initially open and then reach steady-state inactivation during the 500 msec long prepulses. The membrane potential is stepped to a fixed test potential of −20 mV, where maximal peak current is elicited. Currents elicited at each test potential reflect how many channels are not in the inactivated state after a steady-state inactivation; that is, how many channels are available to open. The conditioning prepulse potentials were changed from −120 mV to 50 mV, and the test potential is fixed at −20 mV.
Data collection and analysis. To probe the structural features necessary for the function of γ subunits, we are using HEK-293 cell line stably transfected with Cav3.1 α1 subunit. These cells are then transiently transfected with vectors containing various chimeric, truncated or mutant gamma subunits. […] There is inherent variation in calcium current density in the HEK-Cav3.1 stable cell line likely due to differences in the batch used, passenger number, extent of cellular confluence, or for other unknown reasons. The averaged current density of each test group of cells was normalized to the mean current density of a parallel control group of cells plated from the same batch of cells and analyzed on the same day. A minimum of 5 cells (typically 7 to 10) from each group was used to calculate the mean behavior of test and control cells from each days recording. At least two independent transfections were performed for each test condition. Overall, averages were obtained from 21 control groups of cells that had been transfected with empty vector over several months. The data are pooled together to reduce the variance. […] The current density of the control cells over many months justified the pooling of data recorded from different batches of cells transfected with mutated γ subunits. […]

Cav3.1 [2] = target: T1, Cav3.1; assay: Whole-cell patch clamp of Cav3.1 current in Cav3.1/HEK cells transfected with chimeras, truncations and point mutants (Example 6); assay type: cell-based; details: FIG. 38, FIG. 41
Experimental: Transfection. HEK-293 cells stably transfected with either Cav3.1 or Cav3.2 were transiently transfected, at 50% confluency, with a bicistronic vector encoding both GFP and γ subunit cDNA's using Lipofectamine 2000 reagent (Invitrogen, Carlsbad, Calif.) as per the manufacturer's recommendations. Cells were visualized using an Nikon inverted microscope with an FITC filter.
Electrophysiology. Whole cell Ca^2+ currents were recorded using an Axon Instruments Axopatch-1D amplifier and Clampex 8.0 software. Pipettes were made from boroscillicate glass and had typical resistances of 2-4 Mohms. The pipette solution contained (in mM) 130 NaCl, 10 EGTA, 2 or 5 MgCl2, 1 CaCl2, 10 HEPES, 3 Tris-ATP, and 0.3 Li2GTP. Two different bath solutions were used. The first, used for experiments with γ subunit chimeras, contained (in mM) 130 NaCl, 1 MgCl2, 2 CaCl2, 10 glucose, 10 HEPES, and 0.03 TTX. The second, used for experiments with γ subunit containg point mutations, contained (in mM) 137 NaCl, 1 KCl, 1 MgCl2, 0.33 NaH2PO4, 2 CaCl2, 10 HEPES. All solutions were adjusted to pH 7.4 with NaOH and 280 mOsm with sucrose. No Cl^− currents were evident in any HEK-293 cells line, stably transfected or not, and no attempt was made to eliminate Cl^− currents from data records.
All electrophysiological data are from current records in which voltage offset was adjusted, pipette capacitance and whole cell capacitance were compensated and series resistance was compensated to >80%. Currents were filtered at 10 kHz and recorded at 40 kHz. In some cases, current records were off-line filtered at 1K. Current voltage relationships were recorded using an on-line P/−4 subtraction procedure to eliminate linear capacitative and leakage currents. Only recordings with less than 50 pA leakage current were used.
Several different protocols were used to determine the biophysical characteristics of currents in HEK-293 cells. The voltage dependence of activation was determined using “tail” currents. Cells were depolarized from a holding potential of −100 mV to test potentials ranging from −90 mV to +60 mV. Pulse durations varied and corresponded to the time to peak current measured at the corresponding test potentials. Following the conditioning pulse cells were re-polarized to −60 mV and the amplitude of the resulting “tail” current measured. The voltage dependence of inactivation was measured by depolarizing the cells to voltages ranging from −120 mV to 50 mV for 500 ms to inactivate the Ca^2+ channels. After this conditioning step the membrane was returned to the holding potential (−100 mV) for 3 ms and then depolarized a second time to +20 mV for 150 ms during which time the peak current was measured. Time constants for inactivation were measured by fitting a single exponential equation to the decay phase of currents elicited by voltage steps from −50 to +30 mV from a holding potential of −100 mV. Time constants for deactivation were measured by fitting either a single or a double exponential to the decay phase of tail currents.
To account for the inherent variation in calcium current density in the HEK-Cav3.1 stable cell line the averaged current density of each test group of cells was normalized to the mean current density of a control group of cells. A minimum of 5 cells (typically 7 to 10) from each group was used to calculate the mean current densities of test and control cells. At least two independent transfections were performed for each test condition. […]

Molecule | Inhibitory function on Cav3.1 calcium current (Cav3.1 [1]) | Effect on Cav3.1 calcium current density (Cav3.1 [2]) | Inhibitory function on Cav3.1 calcium current (Cav3.1 [1]; listed as A461) | Normalized Current Density (Cav3.1 [1]) | Normalized Current Density (Cav3.1 [1]; listed as G49A) | Normalized current density, % of control (Cav3.1 [2]; Cav3.1/HEK cells)
B1 | no effect on Cav3.1 calcium current | does not alter calcium current density | – | – | – | –
B2 | did not inhibit calcium current | also altered Cav3.1 current density | no longer inhibitory | – | – | –
B3 | – | – | – | 67.6% | 67.6%±5.9% | 67.6%±5.9%
